Measurements published in patent US20120308513A1 (DENDREON, published 2012).

Tests used:
Assay in all cases: cell-based or functional assay
HLA-DRB1*0101 = HLA-DRB1*0101 (human)
HLA-DRB1*0102 = HLA-DRB1*0102 (human)
HLA-DRB1*0103 = HLA-DRB1*0103 (human)
HLA-DRB1*1503 = HLA-DRB1*1503 (human)
HLA-DRB1*160201 = HLA-DRB1*160201 (human)
HLA-DRB1*0301 = HLA-DRB1*0301 (human)
HLA-DRB1*0302 = HLA-DRB1*0302 (human)
HLA-DRB1*0401 = HLA-DRB1*0401 (human)
HLA-DRB1*0402 = HLA-DRB1*0402 (human)
HLA-DRB1*040301 = HLA-DRB1*040301 (human)
HLA-DRB1*040501 = HLA-DRB1*040501 (human)
HLA-DRB1*1101 = HLA-DRB1*1101 (human)
HLA-DRB1*1102 = HLA-DRB1*1102 (human)
HLA-DRB1*1103 = HLA-DRB1*1103 (human)
HLA-DRB1*1104 = HLA-DRB1*1104 (human)
HLA-DRB1*110401 = HLA-DRB1*110401 (human)
HLA-DRB1*1201 = HLA-DRB1*1201 (human)
HLA-DRB1*1301 = HLA-DRB1*1301 (human)
HLA-DRB1*1302 = HLA-DRB1*1302 (human)
HLA-DRB1*1401 = HLA-DRB1*1401 (human)
HLA-DRB1*1402 = HLA-DRB1*1402 (human)
HLA-DRB1*0701 = HLA-DRB1*0701 (human)
HLA-DRB1*080101 = HLA-DRB1*080101 (human)
HLA-DRB1*080201 = HLA-DRB1*080201 (human)
HLA-DRB1*0901 = HLA-DRB1*0901 (human)

Measured: IFNγ production by T cell clone HER500.23c21, HERp270-284 at 1 µg/mL presented by the homozygous EBV-LcL line (ELISA)

ALVTYNTDTFESMPN [HER500 peptide #63 (HERp270-284)]
> 4000 pg/mL: all assays above
